Legend:
[1] = biological target: T1, Fc tagged human TNFR2 (Sino Biological) (human, UniProt P20333 23-257); assay: SPR, Biacore single cycle kinetics, stability study, before freezing (t=0)
T1 construct: Bought reagent; also called hTNFR2; hTNFR2-Fc; not shown: Fc tag of the bought protein
T1 sequence (looked up): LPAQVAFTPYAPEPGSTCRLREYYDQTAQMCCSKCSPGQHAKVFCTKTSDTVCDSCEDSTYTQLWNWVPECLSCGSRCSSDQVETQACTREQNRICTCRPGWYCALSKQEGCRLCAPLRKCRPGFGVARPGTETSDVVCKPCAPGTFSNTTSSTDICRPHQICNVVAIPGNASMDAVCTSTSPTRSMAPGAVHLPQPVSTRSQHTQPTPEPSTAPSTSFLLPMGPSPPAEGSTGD
Experimental: (§1) Due to the limit in the number of available flow cells for analysis (three Fc per analysis, Fc2, Fc3 and Fc4, with Fc1 always being used as blank reference for non-specific subtraction), receptor binding was assessed in two separate overlapping runs using either: hTNFR1 (Fc2), hTNFR2 (Fc3) and mTNFR1 (Fc4), or; hTNFR1 (Fc2), […] and mTNFR2 (Fc4). Receptors were diluted in running buffer to a concentration of ˜4 μg/mL and at the start of each cycle loaded onto Fc2, Fc3 and Fc4 of a Protein A chip (GE Healthcare, Little Chalfont, UK) at a flow rate of 10 μL/min to give an RU of 40-100. The surface was then allowed to stabilise. Single cycle kinetic data was obtained at a flow rate of 45 μL/min. […] The association phase for the three injections of increasing concentrations of TNF was monitored for 240 seconds and a single dissociation phase was measured for 2700 seconds following the last injection of TNF. Regeneration of the Protein A surface was conducted using 10 mM glycine-HCl pH 1.5. The signal from the reference channel Fc1 (no receptor) was subtracted from that of Fc2, Fc3 and Fc4 to correct for differences in non-specific binding to a reference surface.
(§2) At day zero (prior to freezing) and following thawing on ice after 3 months and 1 year the following assays were performed: [0341] SDS-PAGE [0342] OD280 nm [0343] Single cycle Biacore for binding to hTNFR1, hTNFR2 and mTNFR1

[2] = biological target: T2, Fc tagged mouse TNFR1 (Sino Biological) (mouse, UniProt P25118 22-212, limits assumed); assay: as above
T2 construct: Bought reagent; also called mTNFR1; mTNFR1-Fc; not shown: Fc tag of the bought protein
T2 sequence (looked up): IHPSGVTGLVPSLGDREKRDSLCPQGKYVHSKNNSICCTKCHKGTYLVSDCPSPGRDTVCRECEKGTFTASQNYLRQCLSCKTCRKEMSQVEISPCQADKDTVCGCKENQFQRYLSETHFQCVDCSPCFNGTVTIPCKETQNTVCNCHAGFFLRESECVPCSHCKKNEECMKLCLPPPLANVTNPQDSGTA
Experimental: as §1, §2

[3] = biological target: T3, Fc tagged human TNFR1 (Sino Biological) (human, UniProt P19438 22-211, limits assumed); assay: as above
T3 construct: Bought reagent; also called hTNFR1; hTNFR1-Fc; not shown: Fc tag of the bought protein
T3 sequence (looked up): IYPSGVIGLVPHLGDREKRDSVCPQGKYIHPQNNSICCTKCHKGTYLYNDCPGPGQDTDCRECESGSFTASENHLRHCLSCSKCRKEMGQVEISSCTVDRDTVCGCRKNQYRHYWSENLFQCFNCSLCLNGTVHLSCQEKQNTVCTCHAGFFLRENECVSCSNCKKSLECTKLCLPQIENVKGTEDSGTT
Experimental: as §1, §2

[4] = biological target: T1, Fc tagged human TNFR2 (Sino Biological); assay: SPR, Biacore single cycle kinetics, stability study, after 1 year at -80° C.
Experimental: as §1, §2

[5] = biological target: T2, Fc tagged mouse TNFR1 (Sino Biological); assay: as above
Experimental: as §1, §2

[6] = biological target: T3, Fc tagged human TNFR1 (Sino Biological); assay: as above
Experimental: as §1, §2

[7] = biological target: T1, Fc tagged human TNFR2 (Sino Biological); assay: SPR, Biacore T200 single cycle kinetics, receptor-Fc captured on Protein A chip, TNF 1.67-15 nM
Experimental: (§3) Single cycle kinetic analysis was performed using a Biacore T200 (serial no. 1909913) running Biacore T200 Evaluation Software V2.0.1 (Uppsala, Sweden). All experiments were run at 25° C. with HBS-P+ running buffer (pH 7.4) (GE Healthcare, Little Chalfont, UK).
as §1

[8] = biological target: T2, Fc tagged mouse TNFR1 (Sino Biological); assay: as above
Experimental: as §3, §1

[9] = biological target: T3, Fc tagged human TNFR1 (Sino Biological); assay: as above
Experimental: as §3, §1

[10] = biological target: T1, Fc tagged human TNFR2 (Sino Biological); assay: SPR, Biacore single cycle kinetics, stability study, after 1 year at -20° C.
Experimental: as §1, §2

[11] = biological target: T2, Fc tagged mouse TNFR1 (Sino Biological); assay: as above
Experimental: as §1, §2

[12] = biological target: T4, Fc tagged mouse TNFR2 (Sino Biological) (mouse, UniProt P25119 23-258); assay: SPR (Biacore T200) single cycle kinetics, Fc-tagged receptor captured on Protein A chip, TNF protein as analyte at 1.67-15 nM
T4 construct: Bought reagent; also called mTNFR2; mTNF2; not shown: Fc tag of the bought protein
T4 sequence (looked up): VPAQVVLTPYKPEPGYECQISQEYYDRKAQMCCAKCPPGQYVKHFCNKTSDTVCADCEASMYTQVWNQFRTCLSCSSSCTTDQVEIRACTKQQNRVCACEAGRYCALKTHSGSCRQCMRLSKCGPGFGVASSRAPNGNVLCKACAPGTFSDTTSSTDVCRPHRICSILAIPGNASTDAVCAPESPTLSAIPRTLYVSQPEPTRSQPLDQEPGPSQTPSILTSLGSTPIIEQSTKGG
Experimental: as §3, §1
Controls were used to ensure the integrity of the receptors during the Biacore run.

B1: TNF mutein B2 (ligand)
chain: VRSSSRTPSDKPVAHVVANPQAEGQLQWLNRRANALLANGVELRDNQLVVPSEGLYLIYSQVLFKGQGCPSTHVLLTHTISRITASYSGKVNLLSAIKSPCQRETPEGAEAKPWYEPIYLGGVFQLEKGDRLSAEINRPDYLDFAESGQVYFGIIAL
notes: Human TNF mutein, TASYSG at positions 84-89; not shown: C-terminal FLAG tag and His6 tag from vector pANT65
Kd [1]: 0.198 nM
Kd [2]: 0.0624 nM
Kd [3]: 0.0175 nM
Kd [4]: 0.349 nM
Kd [5]: 0.0864 nM
Kd [6]: 0.0407 nM
Kd [7]: 0.315 nM
Kd [8]: 0.0256 nM
Kd [9]: 0.0164 nM
Kd [10]: 0.21 nM
Kd [11]: 0.0851 nM
binding result [12]: no binding (tested: 15 nM)

From patent US20220387557A1 (OXFORD UNIVERSITY INNOVATION, published 2022)
